Earlier results in paper PMC4271544.

Molecular target: Capping protein (CP) (Homo sapiens) (UniProt P52907)

- Kd: 0.04 µM
Substance: V-1 (myotrophin) (from UniProt P58546)
